Assay: soluble on expression in E. coli; label from the status in PepcDB or PDB records

| Sequence | soluble on expression in E. coli |
| --- | --- |
| LKVGFFKRNLKEKIEAGRGVPNGIPAEDSEQLASGQEAGDPGCLKPLHEKDSESGGGKDG | soluble |
| LLESRELVEKIVSILEEKKAKDLNIIDIREISILADYFVICSGTSTTHIKTLADEVEEKMLEAGIELLHKEGYNSARWILLDYGEVVVHIFHEEDRQFYNLERLWADGVMKHRQ | soluble |
| LLRGLLASIEHGINRVLRLDSTALPRLARLSGHVIAVDCRDPSLKIFILPSDEGLLLAADWAADADCTLRAPASSLLRLALSKDKTAVLHGPDVELEGDSGVLLELTGILQDLELDWEHELSNWVGPVASQLFSSRVRSSGRWTRESFTSLSQNVADYLSEESRTLVGNHEAEARFAELDRIKLDLDRLEARFARLAHFLNT | not soluble |
| LLTLSDIGLSVHRYSNRLDVFTQALEGGKALGDVSVDVYDDNGKVVAQGKTDSDGHARLPLPAKAAVVLAHKDEQTSMLRLNSSALDLAEFDISGPQAHPLQFFIFGPRDLYRPGETVLLNGLLRDSDGKNVKPQPITVEVRRPDDQVSRKFVWEADSSGFYQYQLQLAEEAPTGRWQLVFDLGDGKPQLYEFKVEDFLPERLALELKGSDAPVAPADNPEFDITGRYLYGAPASGNTLTGQVYVRPLREAVAKLPGYQFGSITE | not soluble |
| LLVVGPKFIRANQEYTLVISNFNSQLSKVDLLLKLEGETDNGLSVLNVTKMVDVRRNMNRMINFNMPEDLTAGNYKITIDGQRGFSFHKEAELVYLSKSISGLIQVDKPVFKPGDTVNFRVIVLDTELKPPARVKSVYVTIRDPQRNVIRKWSTAKLYAGVFESDLQIAPTPMLGVWNISVEVEGEELVSKTFEVKEYVLSTFDVQVMPSVIPLEEHQAVNLTIEANYHFGKPVQGVAKVELYLDDDKLKLKKELTVYGKGQVELRFDNFAMDADQQDVPVKVSFVEQYTNRTVVKQSQITVYRYAYRVELIKESPQFRPGLPFKCALQFTHHDGTPAKGISGKVEVSDVRFETTTTSDNDGLIKLELQPSEGTEQLSIHFNAVDGFFFYEDVNKVETVTDAYIKLELKSPIKRNKLMRFMVTCTERMTFFVYYVMSKGNIIDAGFMRPNKQPKYLLQLNATEKMIPRAKILIATVAGRTVVYDFADLAFQELRNNFDLSIDEQEIKPGRQIELSMSGRPGAYVGLAAYDKALLLFNKNHDLFWEDIGQVFDGFHAINENEFDIFHSLGLFARTLDDILFDSANEKTGRNALQSGKPIGKLVSYRTNFQESWLWKNVSIGRSGSRKLIEVVPDTTTSWYLTGFSIDPVYGLGIIKKPIQFTTVQPFYIVENLPYSIKRGEAVVLQFTLFNNLGAEYIADVTLYNVANQTEFVGRPNTDLSYTKSVSVPPKVGVPISFLIKARKLGEMAVRVKASIMLGHETDALEKVIRVMPESLVQPRMDTRFFCFDDHKNQTFPINLDINKKADSGSTKIEFRLNPNLLTTVIKNLDHLLGVPTGCGEQNMVKFVPNILVLDYLHAIGSKEQHLIDKATNLLRQGYQNQMRYRQTDGSFGLWETTNGSVFLTAFVGTSMQTAVKYISDIDAAMVEKALDWLASKQHFSGRFDKAGAEYHKEMQGGLRNGVALTSYVLMALLENDIAKAKHAEVIQKGMTYLSNQFGSINNAYDLSIATYAMMLNGHTMKEEALNKLIDMSFIDADKNERFWNTTNPIETTAYALLSFVMAEKYTDGIPVMNWLVNQRYVTGSFPSTQDTFVGLKALTKMAEKISPSRNDYTVQLKYKKSAKYFKINSEQIDVENFVDIPEDTKKLEINVGGIGFGLLEVVYQFNLNLVNFENRFQLDLEKQNTGSDYELRLKVCASYIPQLTDRRSNMALIEVTLPSGYVVDRNPISEQTKVNPIQKTEIRYGGTSVVLYYDNMGSERNCFTLTAYRRFKVALKRPAYVVVYDYYNTNLNAIKVYEVDKQNLCEICDEEDCPAECGGHHHHHH | soluble |
| LPIQARPRRNRKNRAVRQLVQENLVKPSSLIYPLFVHDEETSVPIPSMPGQSRLSMEDLLKEVGEARSYGIKAFMLFPKVDDELKSVMAEESYNPDGLLPRAIMALKEAFPDVLLLADVALDPYSSMGHDGVVDEQSGKIVNDLTVHQLCKQAITLARAGADMVCPSDMMDGRVSAIRESLDMEGCTDTSILAYSCKYASSFYGPFRDALDSHMVGGTDKKTYQMDPSNSREAEREAEADASEGADMLMVKPGLPYLDVLAKIREKSKLPMVAYHVSGEYAMLKAAAEKGYISEKDTVLEVLKSFRRAGADAVATYYAKEAAKWMVEDMKGTQKFTEPCY | soluble |
| LPVPAGSRFEARVLGETRAMCCPGCQAVAEAIVAGGLESYYRHRSENAANPEALPKALSEELQLYDRPDVQGGFVRHEGELAETSLMIEGISCAACGWLIEKHLRQLPGVAEARLNLSNHRLHVRWQDSQLPLSQLLGELRQIGYAGHPYQPDRATERLAMENRR | not soluble |
| LRARTYGEGGFRVERVLEERPAFTRVQFSYLSDGLRVHGFANLPKGRGPFPVVVVLHGYVEPSRYRLLAYTTPYADFLAERGYLVLHPNFRGHPPSEGAPAQGLRHVYAVDVLNLLAEVRRGAFPQADPARIALFGHSMGGGVAQIVSLVDPGLKGAVLYGSMSGDERRNLERIRYWSGGSRGQELFALSPEVLRQASAWTYLAELSVPYSVHHGTQDAQVPPEWSWELCRRLKALKKPVECFSYPGGHLFRGEVDRVFRERVLAFLGRVL | soluble |
| LSDVLVPTAGGLSSDLSAAVAKALEETFGVAVSLLHVVDPGEEESGRQFMYEWAAEHGLSDAELRIETGDIEATIERLGRDYSLVIVGATERGLLSRIVRGSLVFDVIETLDTPVLLAERPSSRSLRERLFGRE | not soluble |
| LSEKEFFMSRAIKLAKLGWGKTNPNPLVGAVVVKDGKIIAEGYHKQLGGPHAEVEAFNNAKEDVAGGTLYVNLEPCSHYGRTPPCAQKIIDVGIKKVVAAIKDPNPKVSGRGFEMLKNAGIEVEVGVLEEEAIRLNEIFITYIVKKKPFVILKTAMTLDGKIATASGDSKWVTGEKARNHVHVIRDRVAAVMVGINTVLKDNPYLTTRLPDKEGSDPVRIVVDSKGSIPLDSNVINSNSKAGVILATTSRIDKEKEKMLIDKGVKIIKADGSDGRVDLKLLMDELYKLEIDSVLLEGGGTLNSSAISAGIVDKVMCFISPKIVGGENAPTSVEGIGALRMCEAIGVKNISVVKFGEDILLEGYIE | soluble |
| LSNTRVQSRTAKVGYQAGVAINLKTSDYFSIRPEVLYNIMGGDTQYGDDEGNTKVLKNRYDYLSIPLNFVATFEAGPGKINVFVAPQFSLGLGGKYTSNTDSSAVGFFGVRRREDRSGTLQTSDVPDNYTGTNKYFNQINWGINYGVGYQVKGLLFTGQYHMGLSNNEPHYSNPDQEAHRGNVVTKNYGFTVGLTYFFGDTK | not soluble |
| LTYLNYYGKEKPELVYTKIAQSSQQDAFNISKRSQKEMDKQKTWAMVLNQDGQIVQSYRLPQQLKRHYTNADMVKFSRWYLDDYPVFSYVRGQQILVFGYPKKYSLAKFNFYLNTQFIK | not soluble |
| LVRGGWLWRQSSILRRWKRNWFALWLDGTLGYYHDETAQDEEDRVVIHFNVRDIKVGQECQDVQPPEGRSRDGLLTVNLREGSRLHLCAETRDDAIAWKTALMEANSTPAPAGATVP | soluble |
| MAAATATAAATSKKMTYEFTIDDDELSEDGKPSTDQATMCNIYKLNLPASASILSKQIAKSQAKRAKKEERHRRRVDLSTVREQDETRVSNSEENSQNASPRPMTASALVPPDEIPDSAPASHCGGGGGRSRIDSAPLGVKLQRQASLPEDQRKAEPMDEEEAELLAMLLGGIERNERKQMTLNGAGNQKIQEAPIVQAPQIPPSPGLPRLPPGAKVSEWLLERSSSPDNVSVISSVLLEDSGLLLNYQNSVGDEEEDVFFDAEEEKPDDVVNCVEHELQGKSLRVFVRDLSHVLGLSLNRNMAAMTQSLVRVEEETTTTDGPAANDSFRTGRSTSVSPRPTNEQFLRNTNGSATFNVKHSSTLARLQKLTPPNNGNTNPILSTTTTPLSSRTTRSVLRVHNVNSVPRPSVQNSTMSKSSVTANQTNRRAFSGVRMPDMNPTLQKSSPPVVTINPLTPSRPASVASSIGARSGVNGTMTASNLEGLQDLIQQQEDALRRAALNDQSTERKMSWQSDQDANNRQSTSVHSSLGSICSSKSIDGAHALSKMGTPTASRIPTPRSRLPTPRGSNLPKRVYVFFGNFGPNSR | not soluble |
| MAADRNTGHTEEDKLDVLKSTQTVIHKALEKLGYPEEVYELLKEPMRLLTVKIPVRMDDGSVKIFTGYRAHNDSVGPTKGGIRFHPNVTEKEVKALSIWMSLKCGIIDLPYGGGKGGIVCDPRDMSFRELERLSRGYVRAISQIVGPTKDVPAPDVFTNSQIMAWMMDEYSRIDEFNSPGFITGKPLVLGGSHGRESATAKGVTICIKEAAKKRGIDIKGARVVVQGFGNAGSYLAKFMHDAGAKVVGISDAYGGLYDPEGLDIDYLLDRRDSFGTVTKLFNDTITNQELLELDCDILVPAAIENQITEENAHNIRAKIVVEAANGPTTLEGTKILSDRDILLVPDVLASAGGVTVSYFEWVQNNQGFYWSEEEVEEKLEKMMVKSFNNIYEMANNRRIDMRLAAYMVGVRKMAEASRFRGWI | soluble |
| MAAEEGAVIACHTKQEFDTHMANGKDTGKLVIIDFTASWCGPCRVIAPVFAEYAKKFPGAIFLKVDVDELKDVAEAYNVEAMPTFLFIKDGEKVDSVVGGRKDDIHTKIVALMGSAST | soluble |
| MAAGVAAWLPFARAAAIGWMPVASGPMPAP | soluble |
| MAAIINQRVEQGESSMGGAKPALLHRITGHVARINDVILLSKDEGVWTASDDRSVRLYLKRDNDQFWPSIHHFMPVAPTSLYYSEETYKLLVGLINGNVYEFSVADDFNSMTESRKWTCHAGPISGLGFALSSELIFSCSRDKSIVWHCSENSNKMGSYLLENSCTAMVIDLPFVFVGDHGGHVTVLRIVDNQPNLVSKLSAHTNAITSLTWDGNKKVLYSGSSDHLIIMWDIGGGRGEAYELNGHNGKVTTLCAAPAAKRLFSADEHGKLMCWDMNCKRVETPEWKTSDCCQKCNQPFFWNLQAMWQRKVVGLRQHHCRTCGSAVCGSCCDNWTTYPPMGYETKIRICNDCNARMKDNPQNFNLTPLAIPHEIHTGITAMHLQETLGLLVTSGQNRVIMIWDVRSVCSAPSGSQ | not soluble |
| MAAKPVLYYFNGRGKMESIRWLLAAAGVEFEEVFLETREQYEKLLQSGILMFQQVPMVEIDGMKLVQTRAILNYIAGKYNLYGKDLKERALIDMYVGGTDDLMGFLLSFPFLSAEDKVKQCAFVVEKATSRYFPAYEKVLKDHGQDFLVGNRLSWADIHLLEAILMVEEKKSDALSGFPLLQAFKKRISSIPTIKKFLAPGSKRKPISDDKYVETVRRVLRMYYDVKPH | soluble |
| MAALAGDEAWRCRGCGTYVPLSQRLYRTANEAWHGSCFRCSECQESLTNWYYEKDGKLYCHKDYWAKFGEFCHGCSLLMTGPAMVAGEFKYHPECFACMSCKVIIEDGDAYALVQHATLYCGKCHNEVVLAPMFERLSTESVQDQLPYSVTLISMPATTECRRGFSVTVESASSNYATTVQVKEVNRMHISPNNRNAIHPGDRILEINGTPVRTLRVEEVEDAIKQTSQTLQLLIEHDPVPQRLDQLRLDARLPPHMQSTGHTLMLSTLDTKENQEGTLRRRSLRRSNSISKSPGPSSPKEPLLLSRDISRSESLRCSSSYSQQIFRPCDLIHGEVLGKGFFGQAIKVTHKATGKVMVMKELIRCDEETQKTFLTEVKVMRSLDHPNVLKFIGVLYKDKKLNLLTEYIEGGTLKDFLRSVDPFPWQQKVRFAKGISSGMAYLHSMCIIHRDLNSHNCLIKLDKTVVVADFGLSRLIVEERKRPPVEKATTKKRTLRKSDRKKRYTVVGNPYWMAPEMLNGKSYDETVDVFSFGIVLCEIIGQVYADPDCLPRTLDFGLNVKLFWEKFVPTDCPPAFFPLAAICCKLEPESRPAFSKLEDSFEALSLFLGELAIPLPAELEDLDHTVSMEYGLTRDSPP | soluble |

Source: the DeepSol protein solubility set
